By Kd is commonly meant the equilibrium constant for the complex coming apart.

Series [1] has as its target T1, PABPC (PABPC1 RRM1-4) (Homo sapiens, UniProt P11940 1-370). The experiment in a line: EMSA; RNA 5 nM; 1x binding buffer: 100 mM NaCl, 5 mM MgCl2, 0.5 mM EDTA, 0.01% NP-40, 0.1 mg/mL BSA (from 10x stock), 5% glycerol from RNA mix plus glycerol/PBS from protein stock; pH not stated; 15 min at room temperature; 6% native gel with 0.01% Triton X-100 at 4 C. Particulars: protein: commercial; tags: N-terminal 6xHis-SUMO; label: 3' Cy5.

The target of series [2] is T1, PABPC (PABPC1 RRM1-4). The series is described as follows: EMSA; RNA 10 nM; 1x binding buffer: 100 mM NaCl, 5 mM MgCl2, 0.5 mM EDTA, 0.01% NP-40, 0.1 mg/mL BSA (from 10x stock), 5% glycerol from RNA mix plus glycerol/PBS from protein stock; pH not stated; 15 min at room temperature; 6% native gel with 0.01% Triton X-100 at 4 C. Particulars: protein: commercial; tags: N-terminal 6xHis-SUMO; label: 3' Cy5. (Mobility shift assays separate free from complexed probe on a gel.)

T1 sequence (P11940 1-370): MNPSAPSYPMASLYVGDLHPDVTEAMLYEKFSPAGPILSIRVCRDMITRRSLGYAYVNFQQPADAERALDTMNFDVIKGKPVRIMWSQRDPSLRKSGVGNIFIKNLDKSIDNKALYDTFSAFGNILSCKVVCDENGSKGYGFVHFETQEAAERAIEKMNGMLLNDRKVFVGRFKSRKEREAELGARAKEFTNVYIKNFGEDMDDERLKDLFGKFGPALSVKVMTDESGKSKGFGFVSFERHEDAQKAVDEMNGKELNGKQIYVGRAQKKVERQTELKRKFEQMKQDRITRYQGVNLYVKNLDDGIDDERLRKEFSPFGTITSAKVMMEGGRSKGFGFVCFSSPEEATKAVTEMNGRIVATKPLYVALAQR

B1: 3NT Mod poly(A)15 (XNA)
strand: AAAAAAAAAAAAAAA
modifications: 2'-O-methyl and phosphorothioate on the first three nucleotides (mA*mA*mA*A12)
As for B1, the Kd in the series with PABPC (PABPC1 RRM1-4) [1] was determined as 0.054 µM.

B2: fully modified poly(A)15 (XNA)
strand: AAAAAAAAAAAAAAA
modifications: 2'-O-methyl and phosphorothioate on all 15 nucleotides
For B2, the Kd with PABPC (PABPC1 RRM1-4) [1] came to 0.085 µM.

B3: unmodified poly(A)15 (ssRNA)
RNA: AAAAAAAAAAAAAAA
As for B3, the Kd in the series with PABPC (PABPC1 RRM1-4) [2] is 0.11 µM.

For the origin of these results see paper PMC11834087, “Use of polyadenosine tail mimetics to enhance mRNA expression from genes associated with haploinsufficiency disorders”.
